Tests used:
[1] = target: all ZIKV strains tested (MR 766, Dakar 41519, Malaysia P6740, H/PF/2013, Brazil Paraiba 2015); assay: cell-based or functional assay
[2] = target: ZIKV strain H/PF/2013 (French Polynesia, 2013) virus (Zika virus, strain H/PF/2013); assay: cell-based or functional assay

Row | Binder | FRNT50 (focus reduction neutralization test on Vero cells) [1] | FRNT50 (focus reduction neutralization test on Vero cells) [2]
1 | ZIKV-117 (antibody, V domains shown) VH: QVQLVESGGGVVRPGGSLRLSCAASGFTFKNYGIHWVRQAPGKGPEWVAFVRYDGNNKYYADSVKGRFTISRDNAKNTLSLQMNSLRVEDTAVYFCARDPETFGGFDYWGQGTLVTVSS VL: ETVMTQSPATLSVSPGERGTLSCRASESVSSNLAWYQQKPGKAPRLLIYGASTRATGIPDRFSGSGSGTEFTLTISSLQSEDFAVYYCQQYYYSPRTFGQGTKVEVK | 5 to 25 ng/mL | 
2 | ZIKV-88 (antibody, V domains shown) VH: QVQLLESGGGVVQPGRSLRLSCVASGLTFSTSAMHWVRQAPGKGLEWVAVISYDGSYKFYADSVRDQFTISRDNSKTTLYLQMDGLTPEDTAVYYCARGYNDDSSGSYWYFDLWGRGTLVTVSS VL: QSVLTQPPSVSAAPGQKVTMSCSGSSSNIGSNFVSWYQQLPGTAPKVLIFDNNQRPSGIPDRFSGSKSGTSATLAITGLQPGDEAVYHCGTWDSSLTFAVFGGGTKLTVL |  | 420 ng/mL

From patent US11021533
